Experimental data taken from patent US20230399395A1.

Tests used:
IL5 (human) [1] = molecular target: IL5 (human) (UniProt P05113); test: ELISA
IL5 (human) [2] = molecular target: IL5 (human) (UniProt P05113); test: flow cytometry blocking IL5/IL5R
IL5 (human) [3] = molecular target: IL5 (human) (UniProt P05113); test: flow cytometry blocking IL5/IL5R; remark: listed apart in the source
IL5 (human) [4] = molecular target: IL5 (human) (UniProt P05113); test: cell-based or functional assay
IL5 (human) [5] = molecular target: IL5 (human) (UniProt P05113); test: Flow cytometry, blocking of IL5-biotin binding to HEK293F cells expressing IL5R

Control Ab Nucala was tested, and the EC50 (IL5 (human) [1]) was 0.0563 µg/mL, the IC50 (IL5 (human) [2]) was 2.96 µg/mL and the IC50 (IL5 (human) [3]) was 2.36 µg/mL.

Work on Nucala (antibody) yielded an IC50 of inhibition of the proliferation of TF-1 cells induced by IL5 (CCK8, OD450) (IL5 (human) [4]) of 0.178 nM and an IC50 (IL5 (human) [5]) of 2.04 µg/mL.
